Publication PMC4640650 (Science Advances, 2015)

Target: the molecule itself
Experiment: crystal structure

B1: ATP synthase c-subunit of Mycobacterium phlei (Fo rotor ring, c9 ring) (natural protein, UniProt A0A5N5V239 1-86, looked up)
chain: MELDPNALITAGALIGGGLIMGGGAIGAGIGDGIAGNALISGIARQPEAQGRLFTPFFITVGLVEAAYFINLAFMALFVFATPGLQ
stoichiometry N: 9
